In publication PMC3093367:
“And” between values parts separate entries of the source, which are not always exact repeats. Identical values can stand only once.

T1: RVFV nucleoprotein N (SEC fraction N2) (Rift Valley fever virus (strain …, UniProt D3K5I7 1-245))
T1 sequence: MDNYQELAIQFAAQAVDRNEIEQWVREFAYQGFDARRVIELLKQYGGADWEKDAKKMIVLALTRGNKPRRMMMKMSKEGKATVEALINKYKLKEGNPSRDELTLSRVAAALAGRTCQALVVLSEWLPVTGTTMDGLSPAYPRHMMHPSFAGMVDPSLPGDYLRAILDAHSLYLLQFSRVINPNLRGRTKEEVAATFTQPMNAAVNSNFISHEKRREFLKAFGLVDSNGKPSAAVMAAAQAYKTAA


How the values were obtained:
[1] = target: Rift Valley fever virus nucleoprotein (N), recombinant wild type (Rift Valley fever virus (strain Smithburn)) (UniProt P21700); assay: cross-linking
[2] = target: Rift Valley fever virus nucleoprotein (N), recombinant wild type (Rift Valley fever virus (strain Smithburn)) (UniProt P21700); assay: crystal structure
[3] = target: T1, RVFV nucleoprotein N (SEC fraction N2); assay: SPR; RNA immobilized via biotin-NeutrAvidin; SPR (ProteOn XPR36, […]; temperature not stated; conditions: protein: recombinant; tags: N-terminal thioredoxin-His6 tag removed by TEV; label: 3' biotin; single strand

Rift Valley fever virus nucleoprotein (N), recombinant wild type, sequence (P21700 whole entry): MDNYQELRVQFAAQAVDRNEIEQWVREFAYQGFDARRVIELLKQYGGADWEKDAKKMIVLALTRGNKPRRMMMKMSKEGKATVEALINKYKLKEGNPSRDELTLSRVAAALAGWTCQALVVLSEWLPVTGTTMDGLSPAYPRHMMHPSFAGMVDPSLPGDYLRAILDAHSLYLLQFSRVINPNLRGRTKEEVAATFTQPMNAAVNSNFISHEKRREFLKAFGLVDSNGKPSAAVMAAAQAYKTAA

| Molecule | stoichiometry N [1] | stoichiometry N [2] | Kd [3] |
| --- | --- | --- | --- |
| Rift Valley fever virus nucleoprotein (N), recombinant wild type (from UniProt P21700 1-245) (natural protein) | 2 and 3 and 4 | 6 | – |
| GAGUUGUUAAUCUUUUUUUU (ssRNA) [RNA20-3'biotin] | – | – | 3.8 µM |
